{"source": "patent US10543284B2", "about": "“Anti-c-Met antibody and anti-c-Met antibody-cytotoxic drug conjugate and pharmaceutical use thereof” (Suzhou Suncadia Biopharmaceuticals Co., Ltd., priority 2015, dated 2020)", "molecules": {"B1": {"name": "Ab-9: humanized anti c-Met antibody: heavy chain sequence of SEQ ID NO: 23 and light chain sequence of SEQ ID NO: 26 (antibody)", "heavy": "QVTLKESGPVLVKPTETLTLTCTVSGFSLPNYGVHWVRQPPGKALEWLAVIWSGGSTNYAAAFVSRLRISKDTSKSQVVFTMNNMDPVDTATYYCARNHDNPYNYAMDYWGQGTTVTVSSASTKGPSVFPLAPCSRSTSESTAALGCLVKDYFPEPVTVSWNSGALTSGVHTFPAVLQSSGLYSLSSVVTVPSSNFGTQTYTCNVDHKPSNTKVDKTVERKCCVECPPCPAPPVAGPSVFLFPPKPKDTLMISRTPEVTCVVVDVSHEDPEVQFNWYVDGVEVHNAKTKPREEQFNSTFRVVSVLTVVHQDWLNGKEYKCKVSNKGLPAPIEKTISKTKGQPREPQVYTLPPSREEMTKNQVSLTCLVKGFYPSDIAVEWESNGQPENNYKTTPPMLDSDGSFFLYSKLTVDKSRWQQGNVFSCSVMHEALHNHYTQKSLSLSPGK", "light": "DIVLTQSPASLAVSPGQRATITCRANKSVSTSTYNYLHWYQQKPGQPPKLLIYLASNLASGVPARFSGSGSGTDFTLTINPVEANDTANYYCQHSRDLPPTFGQGTKLEIKRTVAAPSVFIFPPSDEQLKSGTASVVCLLNNFYPREAKVQWKVDNALQSGNSQESVTEQDSKDSTYSLSSTLTLSKADYEKHKVYACEVTHQGLSSPVTKSFNRGEC", "modifications": "Ab-9 heavy chain; Ab-9 light chain"}}, "key": {"[1]": {"assay": "LC-MS analysis of deamination (biophysical stability)", "format": "physicochemical", "conditions": "Proportion of deamination molecules; 0.66-1.0% is within background", "protocol": "To evaluate the biophysical stability of the antibodies of the invention, such as the presence of glycosylation and deamination and stability, LC-MS analysis was used.\nThe molecular weight of the heavy and light chains was detected by LC-MS to analyze glycosylation. Deamination was analyzed by LC-MS at 4° C. for a long time (at least 3 months), or at 40° C. for 21 days under an accelerated condition. Samples treated with different conditions were diluted to 2 mg/ml with pH7.2 Tris-HCl, and added into 10 mM TCEP and 6M urea (AMRESCO, Cat #0378)3, then the samples were incubated for 20 minutes at […]. IAA(Sigma-Aldrich, Cat # I1149) with a final concentration of 20 mM was added and was incubated for 15 minutes in darkness to protect the sulfhydryl group. The pH was adjusted using pH7.2 Tris-HCl, and protease (Sigma-Aldrich, Cat # T6567) was added at a proportion by weight of 10:1 (protein: enzyme). The samples were incubated at 37° C. for 25 minutes, and then formic acid with a final concentration of 0.1% (Fluca, Cat #94318) was added to terminate the reactions. Samples were centrifuged and analyzed by LC-MS.\nBiopharmaLynx was used to analyze the presence of deamination. […] The peak area was obtained by integration, and the percentages of deamination and oxidation were calculated."}, "[2]": {"test_system": "human gastric cancer MKN45 cell model", "assay": "MKN45 subcutaneous xenograft in BALB/c nude mice (Example 10)", "format": "in vivo", "conditions": "5 mg/kg antibody, terminated at day 25", "protocol": "The human gastric cancer MKN45 cell model, obtained by subcutaneous xenograft into BALB/c nude mice, was used to evaluate the antitumor activity of the antibodies.\nMKN45 cells were cultured in a monolayer in RPMI-1640 medium (10%/FBS) at 37° C. in 5% CO2. The cells were counted and collected during the logarithmic phase. The cells were resuspended in PBS to an appropriate concentration, and 0.1 ml 3×10^6 cells were subcutaneously injected into the right wing of mice (BALB/c nude mouse, female, 10-week old, 22-28 g, from Shanghai SLAC experimental animal ltd. Licence No. 2007000548777; Environment: SPF grade). When the tumors' average volume reached 114 mm^3, the tumors' weights and volumes were measured, and mice were then separated into groups for treatment. The control group was treated with PBS, and the antibody therapy group was treated with 5 mg/kg antibody of the invention, and the frequency was once a week and twice per time. The tumors' volumes and weights were measured twice a week, and the experiment was terminated at day 25. The formula for calculating tumor size was: tumor volume (mm^3)=0.5×(tumor length×tumor diameter^2)."}}, "data": [{"molecule": "B1", "values": [{"measurement": "Analysis of deamination 4° C., 3.5 months", "setting": "[1]", "result": 0.66, "unit": "%"}, {"measurement": "inhibition rate", "setting": "[2]", "result": 56, "unit": "%"}]}]}
